Experimental findings from the supplement of paper PMC9112550, “Optimization of the antimicrobial peptide Bac7 by deep mutational scanning” (BMC Biology, 2022) are described below.

In this data set the test system is Escherichia coli TOP10. Kind of data set: shrunken log2 fold change of peptide-encoding DNA abundance (4.5 h post-induction vs induction); higher = less antimicrobial activity (less host growth inhibition). Particulars: time post-induction: 4.5 h; library: site-saturation at positions 5, 18, 19, 20.
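Note: peptides expressed intracellularly from a pBAD plasmid library in pooled LB shake-flask culture, induced with 0.3% L-arabinose, DNA abundance read by NGS, three biological replicates, DESeq2 with apeglm shrinkage.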

For the sequence RRIRQRPPRLPRPRPRPQVRPRP, the “shrunken log2 fold change” value is -0.276.
The value for RRIRFRPPRLPRPRPRPSRGPRP was 0.485.
For RRIRPRPPRLPRPRPRPRHKPRP, the “shrunken log2 fold change” value was -0.0467.
Regarding RRIRFRPPRLPRPRPRPTILPRP, the “shrunken log2 fold change” value is -0.453.
Under RRIRGRPPRLPRPRPRPSAKPRP stands 1.12; under RRIRKRPPRLPRPRPRPTQYPRP, 0.0924; under RRIRCRPPRLPRPRPRPDETPRP, -0.0127.
The value for RRIRRRPPRLPRPRPRPNWCPRP was 0.177.
As for RRIRLRPPRLPRPRPRPVEPPRP, the “shrunken log2 fold change” value was 0.188.
RRIRGRPPRLPRPRPRPPKVPRP: the “shrunken log2 fold change” value came out at 0.762.
Under RRIRSRPPRLPRPRPRPSPLPRP stands -0.324; under RRIRERPPRLPRPRPRPEFYPRP, -0.377; under RRIRIRPPRLPRPRPRPAGEPRP, 0.171.
Under RRIRGRPPRLPRPRPRPMISPRP stands 1.18; under RRIRNRPPRLPRPRPRPFETPRP, 0.0215; under RRIRTRPPRLPRPRPRPNEMPRP, -0.235.
The value for RRIRCRPPRLPRPRPRPKWGPRP was 0.496.
Consider RRIRHRPPRLPRPRPRPKIVPRP, for which the “shrunken log2 fold change” value came out at 0.00911.
With RRIRYRPPRLPRPRPRPYKAPRP, the “shrunken log2 fold change” value was determined as 0.019.
Under RRIRHRPPRLPRPRPRPVSSPRP stands -0.0295; under RRIRCRPPRLPRPRPRPNWAPRP, -0.336; under RRIRTRPPRLPRPRPRPHYQPRP, -0.782.
The value for RRIRQRPPRLPRPRPRPYNWPRP was -0.11.
Under RRIRQRPPRLPRPRPRPRCVPRP stands 1.47; under RRIRPRPPRLPRPRPRPGKIPRP, -0.168; under RRIRHRPPRLPRPRPRPLYYPRP, -0.611.
As for RRIRQRPPRLPRPRPRPAMTPRP, the “shrunken log2 fold change” value came out at 0.00659.
Under RRIRSRPPRLPRPRPRPDHNPRP stands -0.308; under RRIRWRPPRLPRPRPRPCWYPRP, -0.277.
As to RRIRTRPPRLPRPRPRPFTIPRP, the “shrunken log2 fold change” value is -0.293.
Under RRIRDRPPRLPRPRPRPKLKPRP stands -0.0223; under RRIRVRPPRLPRPRPRPIMPPRP, -0.535; under RRIRGRPPRLPRPRPRPMLGPRP, 1.19.
In the case of RRIRYRPPRLPRPRPRPFTIPRP, the “shrunken log2 fold change” value was -0.00992.
The value for RRIRPRPPRLPRPRPRPNWTPRP was 0.218; that for RRIRNRPPRLPRPRPRPLHAPRP was -0.0128.
Under RRIRGRPPRLPRPRPRPRYEPRP stands 0.409; under RRIRARPPRLPRPRPRPYTGPRP, -0.645; under RRIRTRPPRLPRPRPRPRARPRP, 0.63.
Under RRIRMRPPRLPRPRPRPDGSPRP stands 0.107; under RRIRWRPPRLPRPRPRPHDYPRP, 0.0166; under RRIRWRPPRLPRPRPRPVYLPRP, -0.229.
With RRIRNRPPRLPRPRPRPLWQPRP, the “shrunken log2 fold change” value was -0.303.
The value for RRIRKRPPRLPRPRPRPKTCPRP was 0.209; that for RRIRDRPPRLPRPRPRPCPWPRP was 0.0761.
For RRIRGRPPRLPRPRPRPENHPRP, the “shrunken log2 fold change” value was 0.455.
Under RRIRGRPPRLPRPRPRPIADPRP stands 0.16; under RRIRGRPPRLPRPRPRPRFPPRP, 0.412.
On to RRIRGRPPRLPRPRPRPMTVPRP, for which the “shrunken log2 fold change” value is 0.0506.
The value for RRIRLRPPRLPRPRPRPKNEPRP was -0.198.
Under RRIRERPPRLPRPRPRPEGWPRP stands 0.668; under RRIRNRPPRLPRPRPRPFRFPRP, -0.199.
Under RRIRVRPPRLPRPRPRPERGPRP stands 0.416; under RRIRERPPRLPRPRPRPSWQPRP, -0.00861; under RRIRARPPRLPRPRPRPQWQPRP, -0.00057.
As for RRIRQRPPRLPRPRPRPPHAPRP, the “shrunken log2 fold change” value is 0.322.
The value for RRIRHRPPRLPRPRPRPIKIPRP was -0.62; that for RRIRFRPPRLPRPRPRPHCPPRP was -0.629.
The value for RRIRIRPPRLPRPRPRPSLAPRP was 0.0113; that for RRIRWRPPRLPRPRPRPCCPPRP was -0.206.
Consider RRIRNRPPRLPRPRPRPIQAPRP, for which the “shrunken log2 fold change” value is -0.0922.
Under RRIRARPPRLPRPRPRPWVFPRP stands 0.276.
The value for RRIRARPPRLPRPRPRPKDRPRP was 0.145.
Under RRIRMRPPRLPRPRPRPAKYPRP stands -0.111.
On to RRIRKRPPRLPRPRPRPRSYPRP, for which the “shrunken log2 fold change” value was -0.134.
As to RRIRDRPPRLPRPRPRPRQPPRP, the “shrunken log2 fold change” value was 0.252.
The value for RRIRERPPRLPRPRPRPCTRPRP was 0.0517; that for RRIRMRPPRLPRPRPRPAFNPRP was 0.144; that for RRIRDRPPRLPRPRPRPCLIPRP was 0.0225.
The value for RRIRYRPPRLPRPRPRPWPAPRP was 0.00297; that for RRIRNRPPRLPRPRPRPMKIPRP was -0.121; that for RRIRPRPPRLPRPRPRPEDCPRP was -0.0873.
Under RRIRQRPPRLPRPRPRPCKWPRP stands -0.0434; under RRIRQRPPRLPRPRPRPQCVPRP, -0.0168.
With RRIRYRPPRLPRPRPRPQCPPRP, the “shrunken log2 fold change” value is -0.15.
As for RRIRSRPPRLPRPRPRPAADPRP, the “shrunken log2 fold change” value came out at 0.252.
The value for RRIRERPPRLPRPRPRPMDYPRP was -0.214; that for RRIRRRPPRLPRPRPRPALYPRP was 0.225.
The value for RRIRARPPRLPRPRPRPAWPPRP was 0.582; that for RRIRFRPPRLPRPRPRPCSFPRP was -0.349; that for RRIRHRPPRLPRPRPRPYGWPRP was -0.145.
As for RRIRCRPPRLPRPRPRPVFKPRP, the “shrunken log2 fold change” value was -0.355.
The value for RRIRDRPPRLPRPRPRPQLMPRP was 0.419.
The value for RRIRNRPPRLPRPRPRPRFLPRP was 0.0562.
Under RRIRQRPPRLPRPRPRPHHWPRP stands -0.0737; under RRIRGRPPRLPRPRPRPQNRPRP, 0.0342.
With RRIRKRPPRLPRPRPRPWQLPRP, the “shrunken log2 fold change” value is -0.00277.
Under RRIRGRPPRLPRPRPRPRIHPRP stands 0.273; under RRIRPRPPRLPRPRPRPWEIPRP, -0.00151; under RRIRERPPRLPRPRPRPFGYPRP, -0.0787.
Under RRIRFRPPRLPRPRPRPAIWPRP stands 0.195.
